From patent publication US20250026815A1 (GAN AND LEE PHARMACEUTICALS, published 2025)
Like-named read-outs stand apart in the source and are kept apart here.

What was measured:
[1] = biological target: RSV-F protein of RSV A2 virus (as carried by the live virus in the neutralisation assay) (human respiratory syncytial virus, …, UniProt P03420 26-574); test: cell-based or functional assay
[2] = biological target: RSV-F protein of RSV B9320 virus (as carried by the live virus in the neutralisation assay) (human respiratory syncytial virus, …); test: cell-based or functional assay
[3] = biological target: RSV-F protein of RSV A Long virus (as carried by the live virus in the neutralisation assay) (human respiratory syncytial virus, …, UniProt P12568 26-574); test: cell-based or functional assay
[4] = biological target: T1, recombinant RSV-F protein (RSV A2 strain fusion (F) protein with added His tag) (human respiratory syncytial virus, A2 …, UniProt P03420 26-524); test: SPR (Biacore), antibody captured, RSV-F as analyte
T1 construct: also called RSV-F recombinant protein
T1 sequence (P03420 26-109, chain 1 of 2): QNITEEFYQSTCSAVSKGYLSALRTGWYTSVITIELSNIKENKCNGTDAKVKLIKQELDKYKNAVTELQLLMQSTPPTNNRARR
T1 sequence (P03420 137-524, chain 2 of 2): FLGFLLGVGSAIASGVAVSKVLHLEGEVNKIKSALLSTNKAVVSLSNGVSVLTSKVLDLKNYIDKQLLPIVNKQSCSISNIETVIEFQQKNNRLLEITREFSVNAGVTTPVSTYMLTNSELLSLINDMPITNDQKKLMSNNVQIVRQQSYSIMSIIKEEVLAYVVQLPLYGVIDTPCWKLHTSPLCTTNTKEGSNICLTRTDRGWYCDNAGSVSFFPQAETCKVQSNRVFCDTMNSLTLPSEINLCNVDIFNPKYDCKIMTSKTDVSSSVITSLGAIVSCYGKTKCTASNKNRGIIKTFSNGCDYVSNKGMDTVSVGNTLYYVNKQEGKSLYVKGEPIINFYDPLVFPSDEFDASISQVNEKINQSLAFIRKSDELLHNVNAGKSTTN

[5] = biological target: T1, recombinant RSV-F protein (RSV A2 …); test: SPR (Biacore), antibody captured, RSV-F as analyte; column head prints nM, Kd/Ka gives M
[6] = biological target: T1, recombinant RSV-F protein (RSV A2 …); test: SPR (Biacore), antibody captured, RSV-F as analyte; remark: listed apart in the source

Sequence of RSV-F protein of RSV A2 virus (as carried by the live virus in the neutralisation assay) (P03420 26-574): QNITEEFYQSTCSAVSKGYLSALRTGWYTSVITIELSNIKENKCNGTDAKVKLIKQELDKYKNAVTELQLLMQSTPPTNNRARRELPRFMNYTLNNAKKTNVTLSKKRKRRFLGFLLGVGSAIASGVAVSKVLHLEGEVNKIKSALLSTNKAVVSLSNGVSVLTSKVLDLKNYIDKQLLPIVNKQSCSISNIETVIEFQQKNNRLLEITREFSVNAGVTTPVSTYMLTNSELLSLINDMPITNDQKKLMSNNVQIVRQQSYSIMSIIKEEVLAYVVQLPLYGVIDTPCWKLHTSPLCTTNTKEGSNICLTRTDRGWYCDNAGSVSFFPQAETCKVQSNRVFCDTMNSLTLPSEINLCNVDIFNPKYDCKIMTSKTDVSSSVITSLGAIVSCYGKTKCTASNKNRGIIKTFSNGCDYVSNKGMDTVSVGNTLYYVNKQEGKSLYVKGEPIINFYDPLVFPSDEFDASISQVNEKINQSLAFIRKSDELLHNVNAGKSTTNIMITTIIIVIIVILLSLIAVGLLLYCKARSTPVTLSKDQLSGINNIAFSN

Binder	Absolute IC50, neutralizing RSV A2 (HEp-2 cells, indirect ELISA) [1]	Absolute IC50, neutralizing RSV B9320 (HEp-2 cells, indirect ELISA) [2]	Absolute IC50, neutralizing RSV A Long (HEp-2 cells, indirect ELISA) [3]	Kd [4]	koff [4]	kon [4]	Kd [5]	koff [6]	kon [6]
R18-22D7QH (antibody, human IgG1, kappa, V domains shown, also called chimeric antibody of R18-22D7) VH: EVKLLESGGGLVQPGGSLKLSCAASGFDFSRYWMSWVRQAPGKGLEWIGEINPDSSTINYTPSLKDKFIISRDNAKNTLYLQMSKVRSEDTALYYCARRGGISYAMDYWGQGTSVTVSS VL: DIVITQDELSNPVTSGESVSISCRSSKSLLYKDGKTYLNWFLQRPGQSPQLLIYLMSTRASGVSDRFSGSGSGTDFTLEISRVKAEDVGVYYCQQLVEYPRTFGGGTKLEIKR	0.03 µg/mL	0.00893 µg/mL	0.0683 µg/mL	3.54 nM	0.00127 s⁻¹	357000 M⁻¹ s⁻¹	–	–	–
R3-16A10QH (antibody, human IgG1, kappa, V domains shown, also called chimeric antibody of R3-16A10) VH: EVKLEESGPELVKPGASVKISCKTSGYAFSDSWMNWVKQRPGQGLEWIGRIYPGDGDTQYNGKVKGKATLTADKSSSTAYMQVSSLTSVDSAVYFCAREGGMITSSGYYHALDYWGQGTSVTVSS VL: DIVMTQSPASLAVSLGQRTTISCRASESVDSYGNSFLNWYQQKPGQPPKVLIYLASNLESGVPARFSGSGSRTDFTLIIDPVEADDAATYYCQQNNEDPTFGGGTKLEIKR	0.0118 µg/mL	0.0726 µg/mL	0.0258 µg/mL	–	2.69e-05 s⁻¹	537000 M⁻¹ s⁻¹	–	–	–
R10-10B2QH (antibody, human IgG1, kappa, V domains shown, also called chimeric antibody of R10-10B2) VH: QVQLEESGAELVRSGASVKLSCTASGFNIKDYYIHWVKQRPEQGLEWIGWNDPENGDTEYAPKFQGKATMTADTSSNTVYLQLSSLTSEDSAVYFCKSFDSYLEYWGQGTSVTVSS VL: DIVMTQTTLSLPVNLGDQASISCRSSQSLVHTDGNTFLEWYLQRPGQSPKLLIYKVSIRFSGVPDRFSGSGSGTDFTLKISRVETEDLGVYYCFQGSHVPRTFGGGTKLEIKR	0.0968 µg/mL	0.0915 µg/mL	0.214 µg/mL	0.0489 nM	3.68e-05 s⁻¹	753000 M⁻¹ s⁻¹	–	–	–
R18-11B1QH (antibody, human IgG1, kappa, V domains shown, also called chimeric antibody of R18-11B1) VH: EVQLEESGPELVKPGASVKISCKSSAQTFSGSWINWVKQRPGQGLEWIGRIFPGDGDTKYNMNFTGKATLTADKSSNTAYMHVSSLTSVDSAVYFCARYDGYYDIGYFDVWGAGTTVTVSS VL: DIVMTQTPASLAVSLGQRATISCRASASVDSYGNKFIHWYQQKPGQPPKLLISLASNLESGVPARFSGSGSRTDFTLTIDPVEADDAATYYCQQTNEDPWTFGGGTKLEIKR	0.101 µg/mL	–	0.0432 µg/mL	0.205 nM	0.000169 s⁻¹	824000 M⁻¹ s⁻¹	–	–	–
R1-11C3QH (antibody, human IgG1, kappa, V domains shown, also called chimeric antibody of R1-11C3) VH: EVQLEESGAELVRSGASVKLSCTASGFNIKDYYMHWVKQRPEQGLEWIGWIDPENGDTEYAPKFQGKATLTADTSSNTAYLQLSTLTSEDNAVYYCNAAYYGDYVEDMDYWGQGTSVTVSS VL: DIVMTQTPLSLSVSLGDQASISCRSSQSIVHSDGNTFLEWYLQKPGQSPKLLIYKVSNRFSGVPDRFSGSGSGTDFTLKISRVEAEDLGVYYCFQASHLPRTFGGGTKLEIKR	0.118 µg/mL	0.0666 µg/mL	0.316 µg/mL	0.0256 nM	1.41e-05 s⁻¹	549000 M⁻¹ s⁻¹	–	–	–
R3-38B6QH (antibody, human IgG1, kappa, V domains shown, also called chimeric antibody of R3-38B6) VH: QVQLEESGPELVKPGASVKISCKASGYAFSSSWMNWVKQRPGQGLEWIGRIYPGDGDTQYHGKVKGKATLTADKSSSTAYMQVSSLTSVDSAVYFCAREGGMITSNGYYHALDYWGQGTSVTVSS VL: DIVMTQTTASLAVSQGQRATISCSASESVDSYGNSFMNWYQQKPGQPPKVLIYLASNLESGVPARFSGSGSRTDFTLTIDPVEADDAATYYCQQNNEDPTFGGGTKLEIKR	0.0176 µg/mL	–	0.0733 µg/mL	0.061 nM	3.02e-05 s⁻¹	495000 M⁻¹ s⁻¹	–	–	–
R3-39A3QH (antibody, human IgG1, kappa, V domains shown, also called chimeric antibody of R3-39A3) VH: QVKLEESGPELVKPGASVKISCKASGYAFSSSWVNWVQQRPGQGLEWIGRIYPGDGETKYSGKFRGKATLTADKSSNTVYMQVSSLTSVDSAVYFCAREGGLITSSGYYHAMDYWGQGTSVTVSS VL: DIVLTQSPPSLAVSLGQRATISCRASKSVDSYGNGFMHWYQQKPGQPPKLLIFLASNLESGVPARFSGSGSRTDFTLTIDPVEADDAASYYCQQSDEDPTFGGGTKLEIKR	0.00592 µg/mL	–	–	0.171 nM	0.000115 s⁻¹	673000 M⁻¹ s⁻¹	–	–	–
R10-6A11QH (antibody, human IgG1, kappa, V domains shown, also called chimeric antibody of R10-6A11) VH: QVKLEESGPGILQPSQTLSLTCSFSGFSLSTSGMGVSWIRQPSGKGLEWLAHIYWDDDKNYNPSLKSRLTISKDTSRNQVFLKITSVDTADTATYYCARKIYYDYDYALDYWGQGTSVTVSS VL: DIVMTQAAFSNPVTLGTSASISCRSSKSLLHSNGITYLCWFLQKPGQSPQLLIYQMSNLASGVPDRFSGSGSGTDFTLRISRVEAEDVGVYYCAQNLELWTFGGGTKLEIKR	0.00745 µg/mL	0.266 µg/mL	0.0199 µg/mL	–	0.000339 s⁻¹	1.03e+06 M⁻¹ s⁻¹	–	–	–
R10-19B2QH (antibody, human IgG1, kappa, V domains shown) VH: EVKLQESGPGMLQPSQTLSLTCSFSGFSLSTSGMGVSWIRQPSGKGLEWLAHIYWDDDKNFNPSLRSRLIISKDPSRNQVFLEITSVDTADTATYFCARKLYNDYDYILDYWGQGTSVTVSS VL: DIVMTQAAFSNPVTLGTSASISCRSSKSLLHSNGITYLCWFLQKPGQSPQLLIYQMSNLASGVPDRFSGSGSGTDFTLRISRVEAEDVGVYYCAQNLELWTFGGGTKLEIKR	0.012 µg/mL	0.021 µg/mL	0.0102 µg/mL	–	–	–	–	–	–
A2-G (antibody, human IgG1, kappa, V domains shown, also called humanized mutant antibody A2-G) VH: QVTLKESGPALVKPTQTLTLTCTFSGFSLSTSGMGVSWIRQPPGKALEWLAHIYWDDDKNFNPSLRSRLTITKDPSKNQVVLTMTNMDPVDTATYFCARKLYNDYDYILDYWGQGTTVTVSS VL: DIVMTQSPLSLPVTPGEPASISCRSSKSLLHSNGITYLGWFLQKPGQSPQLLIYQMSNLASGVPDRFSGSGSGTDFTLKISRVEAEDVGVYYCAQNLELWTFGQGTRLEIKR	–	–	–	–	–	–	0.07 nM	0.000138 s⁻¹	1.97e+06 M⁻¹ s⁻¹
A2-A (antibody, human IgG1, kappa, V domains shown, also called humanized mutant antibody A2-A) VH: QVTLKESGPALVKPTQTLTLTCTFSGFSLSTSGMGVSWIRQPPGKALEWLAHIYWDDDKNFNPSLRSRLTITKDPSKNQVVLTMTNMDPVDTATYFCARKLYNDYDYILDYWGQGTTVTVSS VL: DIVMTQSPLSLPVTPGEPASISCRSSKSLLHSNGITYLAWFLQKPGQSPQLLIYQMSNLASGVPDRFSGSGSGTDFTLKISRVEAEDVGVYYCAQNLELWTFGQGTRLEIKR	–	–	–	–	–	–	0.0509 nM	0.000117 s⁻¹	2.3e+06 M⁻¹ s⁻¹
A2-I (antibody, V domains shown, also called humanized mutant antibody A2-I) VH: QVTLKESGPALVKPTQTLTLTCTFSGFSLSTSGMGVSWIRQPPGKALEWLAHIYWDDDKNFNPSLRSRLTITKDPSKNQVVLTMTNMDPVDTATYFCARKLYNDYDYILDYWGQGTTVTVSS VL: DIVMTQSPLSLPVTPGEPASISCRSSKSLLHSNGITYLIWFLQKPGQSPQLLIYQMSNLASGVPDRFSGSGSGTDFTLKISRVEAEDVGVYYCAQNLELWTFGQGTRLEIK	–	–	–	–	–	–	0.0528 nM	0.000162 s⁻¹	3.07e+06 M⁻¹ s⁻¹
A2-M (antibody, V domains shown, also called humanized mutant antibody A2-M) VH: QVTLKESGPALVKPTQTLTLTCTFSGFSLSTSGMGVSWIRQPPGKALEWLAHIYWDDDKNFNPSLRSRLTITKDPSKNQVVLTMTNMDPVDTATYFCARKLYNDYDYILDYWGQGTTVTVSS VL: DIVMTQSPLSLPVTPGEPASISCRSSKSLLHSNGITYLMWFLQKPGQSPQLLIYQMSNLASGVPDRFSGSGSGTDFTLKISRVEAEDVGVYYCAQNLELWTFGQGTRLEIK	–	–	–	–	–	–	0.0597 nM	0.000138 s⁻¹	2.31e+06 M⁻¹ s⁻¹
A2-N (antibody, V domains shown, also called humanized mutant antibody A2-N) VH: QVTLKESGPALVKPTQTLTLTCTFSGFSLSTSGMGVSWIRQPPGKALEWLAHIYWDDDKNFNPSLRSRLTITKDPSKNQVVLTMTNMDPVDTATYFCARKLYNDYDYILDYWGQGTTVTVSS VL: DIVMTQSPLSLPVTPGEPASISCRSSKSLLHSNGITYLNWFLQKPGQSPQLLIYQMSNLASGVPDRFSGSGSGTDFTLKISRVEAEDVGVYYCAQNLELWTFGQGTRLEIK	–	–	–	–	–	–	0.102 nM	0.000165 s⁻¹	1.61e+06 M⁻¹ s⁻¹
A2-P (antibody, V domains shown, also called humanized mutant antibody A2-P) VH: QVTLKESGPALVKPTQTLTLTCTFSGFSLSTSGMGVSWIRQPPGKALEWLAHIYWDDDKNFNPSLRSRLTITKDPSKNQVVLTMTNMDPVDTATYFCARKLYNDYDYILDYWGQGTTVTVSS VL: DIVMTQSPLSLPVTPGEPASISCRSSKSLLHSNGITYLPWFLQKPGQSPQLLIYQMSNLASGVPDRFSGSGSGTDFTLKISRVEAEDVGVYYCAQNLELWTFGQGTRLEIK	–	–	–	–	–	–	0.0438 nM	0.000156 s⁻¹	3.57e+06 M⁻¹ s⁻¹
A2-Q (antibody, V domains shown, also called humanized mutant antibody A2-Q) VH: QVTLKESGPALVKPTQTLTLTCTFSGFSLSTSGMGVSWIRQPPGKALEWLAHIYWDDDKNFNPSLRSRLTITKDPSKNQVVLTMTNMDPVDTATYFCARKLYNDYDYILDYWGQGTTVTVSS VL: DIVMTQSPLSLPVTPGEPASISCRSSKSLLHSNGITYLQWFLQKPGQSPQLLIYQMSNLASGVPDRFSGSGSGTDFTLKISRVEAEDVGVYYCAQNLELWTFGQGTRLEIK	–	–	–	–	–	–	0.0698 nM	0.000166 s⁻¹	2.38e+06 M⁻¹ s⁻¹
